Here are results for four molecules from patent publication US20160152721A1 (Novartis, published 2016).

“And” between values parts separate entries of the source, which are not always exact repeats. Equal values may be shown once.

The target in assay [1] is T1, human CD40 on cells (BJAB B cell line, human PBMCs, CD20+ B cells, tonsil B cells, monocyte-derived dendritic … (human, UniProt P25942 21-277)). Put plainly: cell-based or functional assay.
The target in assay [2] is T1, human CD40 on cells (BJAB B cell line, …). Put plainly: cell-based or functional assay. The source holds these as a separate data set.
Assay [3] shares this target. Put plainly: cell-based or functional assay. The source holds these as a separate data set.
Assay [4] concerns the target human CD40 (Biacore antigen) (human, UniProt P25942 21-193, limits assumed). Put plainly: Biacore (SPR); format not described. Background: Surface plasmon resonance follows binding to a sensor surface in real time, without labels.
Assay [5] addresses T1, human CD40 on cells (BJAB B cell line, …). Put plainly: flow cytometry on BJAB cells, normalized median fluorescence [left panel (Experiment 68_09]. On the procedure:
(§1) Flow cytometry was used, in order to compare the binding of the different anti-CD40 antibody Fc variants in their binding to human BJAB cells. Therefore, 2×10⁵ cells were seeded per well in a 96-well V-bottom plate. The plates were washed twice with 200 μL of FACS buffer (PBS, 5% FCS, 2 mM EDTA) for 2 min at 4° C. at 1350×g. Supernatants were discarded and cells were resuspended in […] FACS buffer containing 8% human serum (InVitromex, Cat. No. S4190) and incubated for 10 min. After two washes anti-human CD40 Fc variants were added in 50 μL FACS buffer with 1% human serum starting at a concentration of 10 μg/mL in a 1:2 dilution. Cells were incubated for 30 min on ice followed by two washing steps. 50 μL of polyclonal rabbit anti-human IgG FITC, F(ab′)2 (DAKO, Cat. No. F 0315) were added to each well and incubated for 30 min on ice. At the end of the incubation cells were washed twice, resuspended in 100 μL FACS buffer and acquired on a FACS Cantoll.
(§2) After acquisition the mean fluorescence intensity of the FITC channel was acquired in FloJo.Graphing and curve fitting was performed with GraphPad Prism 5.0. Due to changing intensities between individual experiments, values were normalized. Therefore, the highest value of each antibody test series was equaled 100%. Non-linear curve fittings were performed with the percent values.
(§3) To compare the curves of the different experiments, the highest median fluorescence intensity of each individual dose-titration was set to 100% binding and a non-linear curve fitting was applied. […] No changes in the binding capabilities of the variants could be observed with the different mutations of the Fc binding region of Chir12.12.
A general note: Flow cytometry measures light scatter and fluorescence of single cells or particles in a stream.

Assay [6] has the same target. Put plainly: flow cytometry on BJAB cells, normalized median fluorescence [right panel (Experiment 72_09]. On the procedure:
as §1, §2, §3

For assay [7] the target is unchanged. Put plainly: cell-based or functional assay. This is another data set of the same source.
In assay [8] the target is T2, Rhesus CD40 on CD20+ B cells / PBMCs (Rhesus, UniProt F6SNI1 21-278). Put plainly: cell-based or functional assay.
Assay [9] concerns the target T3, Cynomolgus CD40 on CD20+ B cells / PBMCs (Cynomolgus, UniProt G7PG38 21-278). Put plainly: cell-based or functional assay.
In assay [10] the target is T1, human CD40 on cells (BJAB B cell line, …). Put plainly: cell-based or functional assay. This is another data set of the same source.
For assay [11], the target named is T2, Rhesus CD40 on CD20+ B cells / PBMCs. Put plainly: cell-based or functional assay. The source holds these as a separate data set.
In assay [12] the target is T1, human CD40 on cells (BJAB B cell line, …). Put plainly: flow cytometry on human CD20+ B cells. Here is the method:
(§4) PBMCs (rhesus, cynomolgus or human) or tonsil B cells (human only) were incubated at 4° C. for 30 min with purified labeled mAb1 or isotype control antibodies in dose response (final concentration range 2.5 μg/ml-0.00125 μg/ml). Cells were subsequently washed prior to being incubated with an anti-human (non-human primate cross-reactive) and a biotinylated anti-human IgG antibody with minimal cross-reactivity to NHPs (R10; note that it was possible to distinguish membrane IgG expressing human B cells either by including an anti-IgM stain or via differential intensity of FACS staining). Cells were again incubated at 4° C. for 30 min prior to being washed and subject to final staining with streptavidin-FITC for 20 min at 4° C. Cells were subsequently washed and evaluation of CD40 expression on CD20+ cells was performed by flow cytometry.

In assay [13] the target is T3, Cynomolgus CD40 on CD20+ B cells / PBMCs. Put plainly: flow cytometry on Cynomolgus CD20+ B cells. Here is the method:
as §4

Assay [14] has as its target T2, Rhesus CD40 on CD20+ B cells / PBMCs. Put plainly: flow cytometry on Rhesus CD20+ B cells (n = 6). On the procedure:
as §4

T1 sequence (P25942 21-277 limits assumed): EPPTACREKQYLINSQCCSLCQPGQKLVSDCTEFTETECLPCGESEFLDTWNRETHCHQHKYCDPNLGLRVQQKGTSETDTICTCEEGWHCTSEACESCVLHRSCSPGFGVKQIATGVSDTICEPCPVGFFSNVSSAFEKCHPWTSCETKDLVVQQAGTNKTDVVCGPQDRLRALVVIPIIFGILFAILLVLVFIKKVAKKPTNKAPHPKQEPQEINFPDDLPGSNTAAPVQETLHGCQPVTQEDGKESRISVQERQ
human CD40 (Biacore antigen), sequence (P25942 21-193 limits assumed): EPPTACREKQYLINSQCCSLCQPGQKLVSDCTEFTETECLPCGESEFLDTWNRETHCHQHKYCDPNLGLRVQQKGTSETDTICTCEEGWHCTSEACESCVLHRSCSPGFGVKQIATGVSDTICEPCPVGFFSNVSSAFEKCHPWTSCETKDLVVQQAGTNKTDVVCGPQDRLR
T3 sequence (G7PG38 entry or part of it limits assumed): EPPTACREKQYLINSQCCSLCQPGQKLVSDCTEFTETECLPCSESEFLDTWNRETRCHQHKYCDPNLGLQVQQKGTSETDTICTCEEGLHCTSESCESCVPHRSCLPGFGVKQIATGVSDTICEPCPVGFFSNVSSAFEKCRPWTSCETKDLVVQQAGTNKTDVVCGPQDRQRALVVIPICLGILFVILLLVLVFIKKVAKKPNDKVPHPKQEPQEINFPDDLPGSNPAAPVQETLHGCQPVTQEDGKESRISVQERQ
T2 sequence (F6SNI1 entry or part of it limits assumed): as the sequence (G7PG38 entry or part of it limits assumed) above, with Q70R, T92M, V207A, P220L counted along it

B1: Chir12.12 (antibody, human IgG1, kappa)
heavy: not shown
light: DIVMTQSPLSLTVTPGEPASISCRSSQSLLYSNGYNYLDWYLQKPGQSPQVLISLGSNRASGVPDRFSGSGSGTDFTLKISRVEAEDVGVYYCMQARQTPFTFGPGTKVDIRRTVAAPSVFIFPPSDEQLKSGTASVVCLLNNFYPREAKVQWKVDNALQSGNSQESVTEQDSKDSTYSLSSTLTLSKADYEKHKVYACEVTHQGLSSPVTKSFNRGEC
notes: also called Chir12.12 (wt Fc); parental anti-CD40 antibody
Take B1: the “IC50 for inhibition of CD40L-mediated proliferation of PBMCs” value (from here on “IC50 for inhibition”) in assay [1] was determined as 0.176 µg/mL. In addition, in [2], the “IC50 for the inhibition of TNF alpha release from human MoDCs stimulated with MegaCD40L, average” value (“IC50 for the inhibition … average” below) was found to be 0.036 µg/mL; the “IC50 for the inhibition of TNF alpha release from human MoDCs stimulated with MegaCD40L, experiment #2” value (shortened to “IC50 for the inhibition … experiment #2”) came to 0.041 µg/mL; the “IC50 for the inhibition of TNF alpha release from human MoDCs stimulated with MegaCD40L, experiment #3” value (shortened to “IC50 for the inhibition … experiment #3”) is 0.03 µg/mL. Besides, in assay [3], the “Agonist activity on huPBMCs (EC50, ng/ml)” value (shortened to “Agonist activity on huPBMCs”) is more than 10000 ng/mL and the “CD40L inhibition - huPBMCs (IC50, ng/ml)” value was 13 ng/mL. Further, the Kd in assay [4] was 0.55 nM. In addition, the “EC50 (read off the curve)” value in assay [5] was approximately 0.1 µg/mL. Besides, in assay [6], the “EC50 (read off the curve)” value is approximately 0.3 µg/mL.

B2: mAb1 (antibody, human IgG1, kappa, N297A)
heavy: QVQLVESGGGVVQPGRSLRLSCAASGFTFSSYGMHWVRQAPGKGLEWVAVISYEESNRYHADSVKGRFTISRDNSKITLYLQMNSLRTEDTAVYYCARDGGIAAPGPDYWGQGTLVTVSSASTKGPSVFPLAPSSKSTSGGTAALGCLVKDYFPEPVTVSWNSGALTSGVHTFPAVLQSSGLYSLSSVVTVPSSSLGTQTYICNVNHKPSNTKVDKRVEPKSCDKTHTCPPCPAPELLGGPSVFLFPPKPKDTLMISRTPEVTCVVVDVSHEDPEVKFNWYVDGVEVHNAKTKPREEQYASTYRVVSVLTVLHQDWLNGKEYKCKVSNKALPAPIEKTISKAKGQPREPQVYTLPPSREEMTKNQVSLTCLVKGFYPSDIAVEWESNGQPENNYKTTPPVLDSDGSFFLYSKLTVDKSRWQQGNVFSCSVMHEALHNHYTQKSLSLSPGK
light: DIVMTQSPLSLTVTPGEPASISCRSSQSLLYSNGYNYLDWYLQKPGQSPQVLISLGSNRASGVPDRFSGSGSGTDFTLKISRVEAEDVGVYYCMQARQTPFTFGPGTKVDIRRTVAAPSVFIFPPSDEQLKSGTASVVCLLNNFYPREAKVQWKVDNALQSGNSQESVTEQDSKDSTYSLSSTLTLSKADYEKHKVYACEVTHQGLSSPVTKSFNRGEC
notes: Fc-silent IgG1 variant of Chir12.12 with N297A (aglycosylated); same VH/VL as Chir12.12; also called mAb1 (N297A)
Turning to B2, the “IC50 for inhibition” value in [1] stood at 0.058 µg/mL. Moreover, in assay [2], the “IC50 for the inhibition … average” value is 0.04 µg/mL; the “IC50 for the inhibition of TNF alpha release from human MoDCs stimulated with MegaCD40L, experiment #1” value (from here on “IC50 for the inhibition … experiment #1”) came to 0.023 µg/mL; the “IC50 for the inhibition … experiment #2” value stood at 0.044 µg/mL; the “IC50 for the inhibition … experiment #3” value turned out to be 0.058 µg/mL. Further, in assay [3], the “Agonist activity on huPBMCs” value is more than 10000 ng/mL and the “CD40L inhibition - huPBMCs (IC50, ng/ml)” value turned out to be 15 ng/mL. Besides, the “CD154 inhibition (IC50, µg/ml), CD154+IL-4 induced proliferation of human tonsil B cells” value in assay [7] is 0.058 µg/mL and 0.075 µg/mL. In [8], the “CD154 inhibition (IC50, µg/ml), CD154+IL-4 induced proliferation of Rhesus PBMCs (n = 6)” value came to 0.03 µg/mL. For the same molecule, the “CD154 inhibition (IC50, µg/ml), CD154+IL-4 induced proliferation of Cynomolgus PBMCs” value in assay [9] is 0.015 µg/mL and 0.02 µg/mL. In addition, the “IC50 in the functional inhibition test (soluble CD154 + IL4-induced proliferation, human tonsil B cells)” value in assay [10] came out at 0.067 µg/mL. For the same molecule, the “IC50 in the functional inhibition test (soluble CD154 + IL4-induced proliferation, rhesus PBMCs)” value in assay [11] was found to be 0.0255 µg/mL. Also, the Kd in assay [4] came to 0.69 nM. Besides, the EC50 in [12] was 0.26 µg/mL and 0.28 µg/mL. Also, the EC50 in [13] was 0.3 µg/mL and 0.24 µg/mL. In addition, the EC50 in assay [14] worked out at 0.22 µg/mL. The “EC50 (read off the curve)” value in [5] is approximately 0.3 µg/mL. Besides, the “EC50 (read off the curve)” value in assay [6] was approximately 0.5 µg/mL.

B3: mAb2 (antibody, human IgG1, kappa)
heavy: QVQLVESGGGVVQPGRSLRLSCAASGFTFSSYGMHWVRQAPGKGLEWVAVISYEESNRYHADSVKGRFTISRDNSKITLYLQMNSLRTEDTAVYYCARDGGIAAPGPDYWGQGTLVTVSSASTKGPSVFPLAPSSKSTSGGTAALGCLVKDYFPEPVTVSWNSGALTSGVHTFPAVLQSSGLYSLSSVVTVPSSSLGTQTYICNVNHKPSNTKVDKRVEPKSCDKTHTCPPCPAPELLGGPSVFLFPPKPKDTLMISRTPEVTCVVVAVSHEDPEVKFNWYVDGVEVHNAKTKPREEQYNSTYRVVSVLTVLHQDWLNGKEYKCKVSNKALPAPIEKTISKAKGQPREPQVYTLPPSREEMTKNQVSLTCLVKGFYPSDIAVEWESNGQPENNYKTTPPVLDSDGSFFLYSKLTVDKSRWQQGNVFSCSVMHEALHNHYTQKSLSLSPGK
light: DIVMTQSPLSLTVTPGEPASISCRSSQSLLYSNGYNYLDWYLQKPGQSPQVLISLGSNRASGVPDRFSGSGSGTDFTLKISRVEAEDVGVYYCMQARQTPFTFGPGTKVDIRRTVAAPSVFIFPPSDEQLKSGTASVVCLLNNFYPREAKVQWKVDNALQSGNSQESVTEQDSKDSTYSLSSTLTLSKADYEKHKVYACEVTHQGLSSPVTKSFNRGEC
notes: Fc-silent IgG1 variant of Chir12.12 with D265A; same VH/VL as Chir12.12; also called mAb2 (D265A)
In the case of B3, in [1], the “IC50 for inhibition” value stood at 0.146 µg/mL. Further, in [2], the “IC50 for the inhibition … average” value was 0.033 µg/mL; the “IC50 for the inhibition … experiment #1” value came out at 0.041 µg/mL; the “IC50 for the inhibition … experiment #2” value was 0.012 µg/mL; the “IC50 for the inhibition … experiment #3” value was determined as 0.042 µg/mL. Further, in [3], the “Agonist activity on huPBMCs” value is more than 10000 ng/mL and the “CD40L inhibition - huPBMCs (IC50, ng/ml)” value came out at 17 ng/mL. The molecule also had a Kd in assay [4] of 0.49 nM.

B4: mAb3 (antibody, human IgG1, kappa, L234A L235A)
heavy: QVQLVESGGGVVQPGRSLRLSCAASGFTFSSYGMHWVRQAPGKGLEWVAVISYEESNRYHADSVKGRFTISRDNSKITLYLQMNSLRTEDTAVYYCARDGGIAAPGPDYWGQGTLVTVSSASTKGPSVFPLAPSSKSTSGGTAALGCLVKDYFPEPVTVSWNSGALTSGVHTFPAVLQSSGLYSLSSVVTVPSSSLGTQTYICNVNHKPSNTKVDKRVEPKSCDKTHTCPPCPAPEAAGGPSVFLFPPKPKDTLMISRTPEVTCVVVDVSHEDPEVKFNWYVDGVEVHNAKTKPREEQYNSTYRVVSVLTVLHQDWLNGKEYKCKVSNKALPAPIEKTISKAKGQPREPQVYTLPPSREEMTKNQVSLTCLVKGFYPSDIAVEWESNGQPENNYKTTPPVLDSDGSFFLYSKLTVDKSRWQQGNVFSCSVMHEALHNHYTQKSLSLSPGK
light: DIVMTQSPLSLTVTPGEPASISCRSSQSLLYSNGYNYLDWYLQKPGQSPQVLISLGSNRASGVPDRFSGSGSGTDFTLKISRVEAEDVGVYYCMQARQTPFTFGPGTKVDIRRTVAAPSVFIFPPSDEQLKSGTASVVCLLNNFYPREAKVQWKVDNALQSGNSQESVTEQDSKDSTYSLSSTLTLSKADYEKHKVYACEVTHQGLSSPVTKSFNRGEC
notes: IgG1 variant of Chir12.12 with L234A/L235A; same VH/VL as Chir12.12; also called mAb3 (LALA); LALA mutant
With B4, the “IC50 for inhibition” value in assay [1] came to 0.118 µg/mL. In assay [2], the “IC50 for the inhibition … average” value worked out at 0.032 µg/mL; the “IC50 for the inhibition … experiment #1” value turned out to be 0.039 µg/mL; the “IC50 for the inhibition … experiment #2” value was 0.008 µg/mL; the “IC50 for the inhibition … experiment #3” value was 0.047 µg/mL. Also, in [3], the “Agonist activity on huPBMCs” value was more than 10000 ng/mL and the “CD40L inhibition - huPBMCs (IC50, ng/ml)” value turned out to be 15 ng/mL. In addition, binding in [4] was characterised by a dissociation constant (Kd) of 0.33 nM. In assay [5], the “EC50 (read off the curve)” value was approximately 0.1 µg/mL. In addition, the “EC50 (read off the curve)” value in [6] was approximately 0.2 µg/mL.

The term Kd denotes the constant that tells how readily two partners part at equilibrium. Low readings indicate higher affinity, high ones lower affinity. As usually defined, the EC50 (read off the curve) is the concentration that produces a half-maximal response. Low readings indicate greater potency, high ones weaker potency. For orientation: EC50 means the midpoint of the concentration-response curve. Read a high EC50 as weaker potency.
